Results: patent US20240360436A1 (DDBIO, published 2024)
Changes are numbered by the printed parent chain.

B1: Selicrelumab (Fab, V domains shown)
VH: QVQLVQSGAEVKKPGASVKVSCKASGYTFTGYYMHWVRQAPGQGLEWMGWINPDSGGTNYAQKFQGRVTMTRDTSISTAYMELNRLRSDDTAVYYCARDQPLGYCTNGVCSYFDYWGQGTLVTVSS
VL: DIQMTQSPSSVSASVGDRVTITCRASQGIYSWLAWYQQKPGKAPNLLIYTASTLQSGVPSRFSGSGSGTDFTLTISSLQPEDFATYYCQQANIFPLTFGGGTKVEIKR
notes: Also expressed as full-length antibody; also called #1; Positive antibody
B2: DDBK003-12 (Fab, V domains shown)
VH: QVQLQESGPGLVKPSETLSLTCNVSGYSITRGYFWGWIRQPPGKGLEWIGSIYQSGAARYNPSLQSRVTLSVDTSKNQFSLKLTSVTAADTAVYYCARDAATQVRGSWYNGYYFDPWGQGTLVTVSS
VL: B1 VL
notes: Heavy-chain replacement clone of Selicrelumab; also expressed as KLC/IgG1
B3: DDBK003-13 (Fab, V domains shown)
VH: EVQLVQSGPGLVRPSETLSLTCSASGGSVSSASDLWGWIRQAPGKGLEWIGNIYYLGKTDYNPSLGGRVSITMDKSKNQFSLRLSSVTAADTAMYYCAKRSTLPMRGFFVSWGQGTTVTVSS
VL: B1 VL
notes: as for B2
B4: DDBK003-14 (Fab, V domains shown)
VH: QVQLVESGAEVKKPGSSVKVSCKASGGTFSASAISWVRQAPGQGLEWMGGIFPILGSANYAQKFQGRVTITADESTSTAYMELSSLRSEDTAVYYCARDLAGYNYGFFGYWGRGTLVTVSS
VL: B1 VL with Y30N, K42R, N45K, N92K, I93S
notes: Light- and heavy-chain double replacement clone of Selicrelumab; also expressed as KLC/IgG1
B5: DDBK003-16 (Fab, V domains shown)
VH: B4 VH
VL: B1 VL with Y30S, N45K, T50A, T53S, I93S, V104L
notes: as for B4
B6: DDBK003-3 (Fab, V domains shown)
VH: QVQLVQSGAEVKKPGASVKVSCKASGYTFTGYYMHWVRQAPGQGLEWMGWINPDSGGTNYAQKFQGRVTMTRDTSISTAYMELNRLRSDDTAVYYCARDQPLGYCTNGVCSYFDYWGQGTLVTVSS
VL: DIQMTQSPSSVSASIGDRVTVTCRASQAIGSWVAWYQQKPGKVPKLLIYSASKIQSGVPSRFSGSGSGTDFTLTISSLQPEDFATYYCQQANSFPITFGQGTLLEIKR
notes: Light-chain replacement clone of Selicrelumab; also expressed as KLC/IgG1
B7: DDBK003-2 (Fab, V domains shown)
VH: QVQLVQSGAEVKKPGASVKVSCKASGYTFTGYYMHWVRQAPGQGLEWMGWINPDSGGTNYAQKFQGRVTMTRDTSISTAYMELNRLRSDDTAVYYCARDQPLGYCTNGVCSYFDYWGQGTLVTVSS
VL: DIQMTQSPSSVSASVGDRVTITCRATQDIRPWLAWYQQRPGKAPQLLIYRTSTLQSGVPSRFSGSGSGTDFTLTISNLQPEDFATYYCQHAKIFPITFGQGTRLEIKR
notes: Light-chain replacement clone of Selicrelumab; also expressed as full-length antibody (KLC/IgG1)

What follows are binders tested against T1, CD40 antigen (biotin-label-free, AcroBio Cat #: CDO-H5253) (UniProt P25942 21-193) (assay: ELISA, CD40 antigen coated, anti-flag-HRP, OD405).
T1 construct: Bought protein; A biotin-labeled form (CDO-H82E8) was used for panning only; also called CD40 antigens
T1 sequence (P25942 21-193 limits assumed): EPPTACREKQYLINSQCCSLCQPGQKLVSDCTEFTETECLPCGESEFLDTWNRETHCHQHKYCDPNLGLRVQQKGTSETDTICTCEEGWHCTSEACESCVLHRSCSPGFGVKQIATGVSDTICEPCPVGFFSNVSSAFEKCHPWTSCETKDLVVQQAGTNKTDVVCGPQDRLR

Row | ELISA reading | Binder
1 | 2.92 OD405 | B1
2 | 3.22 OD405 | B2
3 | 3.33 OD405 | B3
4 | 2.02 OD405 | B4
5 | 1.93 OD405 | B5
6 | 2.87 OD405 | B6
7 | 3.15 OD405 | B7
